Experimental findings from publication PMC11812572 (2025) are described below.

Test [1] deals with T1, recombinant human cytoplasmic dynein 1 complex with mEGFP fused to its heavy chain, mEGFP-dynein (human, UniProt Q14204 1-4646; O43237-1 1-492; P63172 1-113; Q9NP97-1 1-96; P63167 1-89). The test is described as follows: apparent, from TIRF dynein activation (run frequency); with 14 nM dynactin and 200 nM NuMA^N-term.
In test [2] the target is T1, recombinant human cytoplasmic dynein 1 …. The experiment in a line: apparent, from TIRF dynein activation (run frequency); with 14 nM dynactin and 100 nM Lis1.

B1: Lis1 (protein)
chain: MVLSQRQRDELNRAIADYLRSNGYEEAYSVFKKEAELDVNEELDKKYAGLLEKKWTSVIRLQKKVMELESKLNEAKEEFTSGGPLGQKRDPKEWIPRPPEKYALSGHRSPVTRVIFHPVFSVMVSASEDATIKVWDYETGDFERTLKGHTDSVQDISFDHSGKLLASCSADMTIKLWDFQGFECIRTMHGHDHNVSSVAIMPNGDHIVSASRDKTIKMWEVQTGYCVKTFTGHREWVRMVRPNQDGTLIASCSNDQTVRVWVVATKECKAELREHEHVVECISWAPESSYSSISEATGSETKKSGKPGPFLLSGSRDKTIKMWDVSTGMCLMTLVGHDNWVRGVLFHSGGKFILSCADDKTLRVWDYKNKRCMKTLNAHEHFVTSLDFHKTAPYVVTGSVDQTVKVWECR
modifications: full-length human Lis1; N-terminal His6-TEV tag (unlabelled construct) or mCherry fusion left out; homodimer by general knowledge, copy number not printed in the text given
For the molecule B1, the Kd in test [1] came out at 148 nM.

B2: AF546- or AF647-labelled SNAP-tagged human NuMA N-terminal fragment (first 705 aa), NuMA^N-term (domain or fragment)
chain: MTLHATRGAALLSWVNSLHVADPVEAVLQLQDCSIFIKIIDRIHGTEEGQQILKQPVSERLDFVCSFLQKNRKHPSSPECLVSAQKVLEGSELELAKMTMLLLYHSTMSSKSPRDWEQFEYKIQAELAVILKFVLDHEDGLNLNEDLENFLQKAPVPSTCSSTFPEELSPPSHQAKREIRFLELQKVASSSSGNNFLSGSPASPMGDILQTPQFQMRRLKKQLADERSNRDELELELAENRKLLTEKDAQIAMMQQRIDRLALLNEKQAASPLEPKELEELRDKNESLTMRLHETLKQCQDLKTEKSQMDRKINQLSEENGDLSFKLREFASHLQQLQDALNELTEEHSKATQEWLEKQAQLEKELSAALQDKKCLEEKNEILQGKLSQLEEHLSQLQDNPPQEKGEVLGDVLQLETLKQEAATLAANNTQLQARVEMLETERGQQEAKLLAERGHFEEEKQQLSSLITDLQSSISNLSQAKEELEQASQAHGARLTAQVASLTSELTTLNATIQQQDQELAGLKQQAKEKQAQLAQTLQQQEQASQGLRHQVEQLSSSLKQKEQQLKEVAEKQEATRQDHAQQLATAAEEREASLRERDAALKQLEALEKEKAAKLEILQQQLQVANEARDSAQTSVTQAQREKAELSRKVEELQACVETARQEQHEAQAQVAELELQLRSEQQKATEKERVAQEKDQLQEQLQ
modifications: SNAP-tag labelled with SNAP-Surface Alexa Fluor 546 or SNAP-Surface Alexa Fluor 647
In the case of B2, the Kd in test [2] is 51 nM.
